Source: publication PMC5695660 (Nature chemical biology, 2013)
Where two headings read alike, the source gives them in different places.

B1: BRaf kinase domain (wild-type, native; amino acids 433-726), Sf9 (domain or fragment, human, UniProt P15056 433-726, looked up)
chain: EDRNRMKTLGRRDSSDDWEIPDGQITVGQRIGSGSFGTVYKGKWHGDVAVKMLNVTAPTPQQLQAFKNEVGVLRKTRHVNILLFMGYSTKPQLAIVTQWCEGSSLYHHLHIIETKFEMIKLIDIARQTAQGMDYLHAKSIIHRDLKSNNIFLHEDLTVKIGDFGLATVKSRWSGSHQFEQLSGSILWMAPEVIRMQDKNPYSFQSDVYAFGIVLYELMTGQLPYSNINNRDQIIFMVGRGYLSPDLSKVRSNCPKAMKRLMAECLKKKRDERPLFPQILASIELLARSLPKIHR
B2: Cdc37 phosphorylated on Ser13 (natural protein, human, UniProt Q16543 1-378, looked up)
chain: MVDYSVWDHIEVSDDEDETHPNIDTASLFRWRHQARVERMEQFQKEKEELDRGCRECKRKVAECQRKLKELEVAEGGKAELERLQAEAQQLRKEERSWEQKLEEMRKKEKSMPWNVDTLSKDGFSKSMVNTKPEKTEEDSEEVREQKHKTFVEKYEKQIKHFGMLRRWDDSQKYLSDNVHLVCEETANYLVIWCIDLEVEEKCALMEQVAHQTIVMQFILELAKSLKVDPRACFRQFFTKIKTADRQYMEGFNDELEAFKERVRGRAKLRIEKAMKEYEEEERKKRLGPGGLDPVEVYESLPEELQKCFDVKDVQMLQDAISKMDPTDAKYHMQRCIDSGLWVPNSKASEAKEGEEAGPGDPLLEAVPKTGDEKDVSV
modifications: phosphoserine at 13
B3: Cdc37 (human, full length), bacterially expressed (natural protein, UniProt Q16543 1-378, looked up)
chain: B2 chain
B4: Cak1p, cyclin-dependent kinase activating kinase from budding yeast (enzyme, UniProt P43568 1-368, looked up)
chain: MKLDSIDITHCQLVKSTRTARIYRSDTYAIKCLALDFDIPPHNAKFEVSILNKLGNKCKHILPLLESKATDNNDLLLLFPFEEMNLYEFMQMHYKRDRRKKNPYYDLLNPSIPIVADPPVQKYTNQLDVNRYSLSFFRQMVEGIAFLHENKIIHRDIKPQNIMLTNNTSTVSPKLYIIDFGISYDMANNSQTSAEPMDSKVTDISTGIYKAPEVLFGVKCYDGGVDVWSLLIIISQWFQRETSRMGHVPAMIDDGSDDMNSDGSDFRLICSIFEKLGIPSIQKWEEVAQHGSVDAFVGMFGADGDGKYVLDQEKDVQISIVERNMPRLDEIADVKVKQKFINCILGMVSFSPNERWSCQRILQELEKP

Experiments:
[1] = target: Cdc37 (human, full length), bacterially expressed (human) (UniProt Q16543); assay: ITC
Cak1p = target: T1, Cak1p (Saccharomyces cerevisiae, UniProt P43568); assay: isothermal titration calorimetry; type: binding
T1 sequence (P43568 1-368): B4 chain

[2] = target: B3; assay: SEC
[3] = target: T2, Hsp90β, bacterially expressed (human, UniProt P08238 1-724); assay: SEC
[4] = target: T2, Hsp90β, bacterially expressed; assay: SEC; remark: listed apart in the source
budding yeast Cdc37p = target: T3, budding yeast Cdc37p (budding yeast, UniProt P06101 1-506); assay: SEC
T3 sequence (looked up): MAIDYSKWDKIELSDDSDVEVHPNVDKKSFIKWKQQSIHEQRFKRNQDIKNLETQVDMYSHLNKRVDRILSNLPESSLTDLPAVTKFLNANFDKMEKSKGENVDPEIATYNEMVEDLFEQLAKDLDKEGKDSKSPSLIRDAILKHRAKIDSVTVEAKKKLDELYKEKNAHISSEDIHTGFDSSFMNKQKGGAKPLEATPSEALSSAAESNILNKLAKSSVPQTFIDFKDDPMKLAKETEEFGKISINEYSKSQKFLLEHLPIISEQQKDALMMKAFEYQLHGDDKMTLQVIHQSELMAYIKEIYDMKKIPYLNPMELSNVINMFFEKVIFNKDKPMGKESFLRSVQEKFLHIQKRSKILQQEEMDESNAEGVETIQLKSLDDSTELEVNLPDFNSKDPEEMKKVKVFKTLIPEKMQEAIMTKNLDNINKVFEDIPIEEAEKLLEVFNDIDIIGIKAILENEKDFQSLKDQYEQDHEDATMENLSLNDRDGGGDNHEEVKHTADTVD

T2 sequence (P08238 whole entry): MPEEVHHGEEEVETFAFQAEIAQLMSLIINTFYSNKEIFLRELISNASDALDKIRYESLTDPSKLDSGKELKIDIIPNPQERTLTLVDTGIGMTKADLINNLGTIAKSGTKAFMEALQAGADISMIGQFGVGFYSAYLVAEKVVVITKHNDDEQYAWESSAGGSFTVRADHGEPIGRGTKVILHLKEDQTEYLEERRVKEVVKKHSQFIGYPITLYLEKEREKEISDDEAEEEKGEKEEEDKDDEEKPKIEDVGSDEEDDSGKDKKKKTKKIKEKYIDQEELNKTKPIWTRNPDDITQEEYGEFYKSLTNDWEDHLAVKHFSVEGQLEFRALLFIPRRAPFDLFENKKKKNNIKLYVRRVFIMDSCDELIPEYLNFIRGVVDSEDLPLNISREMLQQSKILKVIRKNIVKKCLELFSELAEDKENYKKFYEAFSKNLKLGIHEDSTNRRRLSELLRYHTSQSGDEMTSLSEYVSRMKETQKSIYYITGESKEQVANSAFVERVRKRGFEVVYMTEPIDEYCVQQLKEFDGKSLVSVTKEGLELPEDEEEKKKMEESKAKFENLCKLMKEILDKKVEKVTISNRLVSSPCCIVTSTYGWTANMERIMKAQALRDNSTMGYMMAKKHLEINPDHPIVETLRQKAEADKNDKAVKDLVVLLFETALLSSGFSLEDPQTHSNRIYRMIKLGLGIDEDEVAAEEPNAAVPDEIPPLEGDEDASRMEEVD

Question: With “solubilised BRaf V600E kinase domain (sBRafV600E), bacterially expressed (from UniProt P15056 457-717) (domain or fragment)” as the molecule, how does the Kd [1] read?
Answer: Its Kd is 200 nM.

Question: `NC1=N/C(=C2/CCNC(=O)c3[nH]ccc32)C(=O)N1` [debromohymenialdisine] was tested. Which Kd (Cak1p) did it give?
Answer: Its Kd is roughly 1700 nM.

Question: Does B1 bind [2]?
Answer: Result: binds

Question: Does B2 bind [3]?
Answer: Result: binds

Question: Does B3 bind [4]?
Answer: Result: binds

Question: Does B4 bind (budding yeast Cdc37p)?
Answer: Result: binds
